Source: patent publication US20050142137A1 (CURAGEN, published 2005)
Numbering of substitutions follows the chain as printed.

B1: 43H7 (antibody, human IgG2, V domains shown)
VH: QVQLVESGGGVVQPGRSLRLSCAASGFTFSTYGMHWVRQAPGKGLEWVTFIWYDGRNKYYADSVKGRFTVSRDNSKNTLYLQMNSLRAEDTAVYYCARGDDYGDYHPHYYYYGLDVWGQGTTVTVSS
VL: DIVMTQTPLSLSVTPGQPASISCKSSQSLLDSDGKTYLYWYLQKPGQPPQLLIYEVSNRFSGVPDRFSGSGSGTDFTLKISRVEAEDVAYYYCMQSIQLPWTFGQGTKVEIK
notes: Fully human, XenoMouse XMG2; also called #11; Cur12.1 PL43 H7
B2: 9G12 (antibody, human IgG2, V domains shown)
VH: B1 VH with T31G, T49A, D54N, R56N, N57D, K58N, A61T, V70I, L114M
VL: B1 VL with V88I, A89G, Y90V, M94L
notes: Fully human, XenoMouse XMG2; also called #36; Cur12.1 PL09 G12
B3: 35F1 (antibody, human IgG2, V domains shown)
VH: QVQLQESGPGLVKPSQTLSLTCTVSGGSIKSGDYYWSWVRQLPGKGLEWIGYIYYSGSTYYNPSLKSRVTISIDTSKNQFSLKLSSVTAADTAVYYCAREGSYYDSGGFDYWGQGTLVTVSS
VL: not shown
notes: Fully human, XenoMouse XMG2; also called #50; Cur12.1 PL35 F1
B4: 42C1 (antibody, human IgG2, V domains shown)
VH: B3 VH with G27V, K30S, D33G, V39I, L42H, I73V, Y95F, S102E, S106E
VL: not shown
notes: Fully human, XenoMouse XMG2; also called #24; Cur12.1 PL42 C1

Target: T1, recombinant human SLPI (Secretory leukocyte protease inhibitor), R&D Systems Cat#260-PI (human, UniProt P03973 25-131, biotinylated in the streptavidin-plate ELISAs and on SRBCs)
T1 construct: Bought protein; also called biotinylated SLPI; B-Cur12
Assay: ELISA, SLPI (60 ng/ml) + supernatant on plate-bound chymotrypsin
Procedure: Antibodies were screened for ability to inhibit SLPI activity. The assay involves assessing SLPI binding to chymotrypsin and resultant inhibition of chymotrypsin enzyme activity in the presence or absence of antibody. Biotinylated bovine chymotrypsin (5 μg/ml) was incubated with streptavidin coated plates for 30 minutes at RT. Each plate was washed 5 times with dH₂O prior to addition of an anti-SLPI antibody mixture (30 μl of SLPI reconstituted in 100 mM Tris, 10 mM CaCl₂ and 0.1% HSA pH 7.5 mixed with 20 μl of monoclonal antibody supernatant being tested; final concentration SLPI 60 ng/ml; incubated for 1 hour at RT) and plates were incubated for 1 hour. Plates were washed 5 times with dH₂O then incubated with 50 μl of a polyclonal Goat anti-SLPI (purchased from R&D) at 1 μg/ml/well for 1 hour. After washing, 50 μl of a rabbit anti-goat HRP-conjugated antibody/well was added and incubated for 1 hour. After washing, 50 μl of TMB substrate/well was added.. The reaction was stopped by adding of 50 μl of 1M phosphoric acid/well. Plates were read at wavelength 450 nm.

T1 sequence (P03973 25-131): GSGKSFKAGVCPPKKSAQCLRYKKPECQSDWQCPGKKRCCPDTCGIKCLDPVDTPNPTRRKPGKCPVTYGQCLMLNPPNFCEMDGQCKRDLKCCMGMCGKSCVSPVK

Binder	% Max [%]	O.D. [OD450]
B1	90	0.666
B2	61	0.452
B3	47	0.35
B4	103	0.762

Target: T1, recombinant human SLPI (Secretory …)
Assay: BIAcore 2000, 25 C, antibody captured on goat anti-human surface, SLPI injected
Procedure: BiaCore® analysis was used to determine binding affinity of anti-SLPI antibody to SLPI antigen. The analysis was performed at 25° C. using a BiaCore® 2000 biosensor equipped with a research-grade CM5 sensor chip. A high-density goat α human antibody surface over a CM5 BiaCore® chip was prepared using routine amine coupling. Antibody supernatents were diluted to ˜5 μg/mL in HBS-P running buffer containing 100 μg/mL BSA and 10 mg/mL carboxymethyldextran. The antibodies were then captured individually on a separate surface using a 2 minute contact time, and a 5 minute wash for stabilization of antibody baseline.
SLPI antigen was injected over each surface for 75 seconds, followed by a 3-minute dissociation. Double-referenced binding data were obtained by subtracting the signal from a control flow cell and subtracting the baseline drift of a buffer inject just prior to the SLPI injection. SLPI binding data for each mAb were normalized for the amount of mAb captured on each surface. The normalized, drift-corrected responses were also measured.

Binder	Kd [nM]
B1	0.104
B2	0.053
B3	0.14
B4	0.116

Target: T1, recombinant human SLPI (Secretory …)
Assay: ELISA, B cell supernatant on biotinylated SLPI, primary screen
Procedure: Anti-SLPI antibody titers were determined by indirect ELISA. Briefly, biotinylated SLPI (0.5 μg/mL) was coated onto Sigma Streptavidin Clear Polystyrene 96 well ELISA plates for 30 minutes at room temperature (RT). The plates were then washed 4× by hand, then pat dried on paper towels. XenoMouse® animal sera from SLPI immunized, or naïve XenoMouse® animals, were titrated out to 6 wells, the last well left blank, in 1% no fat skim milk/PBS at 1:2 dilutions in duplicate from a 1:500 initial dilution. 50 μl was used for each well. The plates were incubated for 1 hour then washed four times. 50 μl of a goat anti-human IgG Fc-specific HRP-conjugated antibody (0.4 μg/mL) was added to each well and incubated for 1 hour at RT. The plates were washed five times with distilled water (dH₂O). The plates were developed with the addition of TMB for 30 minutes and the ELISA was stopped by the addition of 1 M phosphoric acid. The specific titers of individual XenoMouse® animals were determined from the optical density at 450 nm, Table 2. The titers represent the reciprocal dilution of the serum to either SLPI or streptavidin and therefore the higher the number, the greater the humoral immune response. Lymph nodes were harvested for XenoMax® antibody generation from immunized XenoMouse® animals with specific titers to SLPI versus streptavidin as shown in Table 4.
B cells from the harvested animals were cultured and those secreting SLPI-specific antibodies were isolated as described previously (Babcook et al., 1996 Proc. Natl. Acad. Sci. USA, 93:7843-7848). ELISA, performed as described above, was used to identify primary SLPI-specific wells from fifty plates cultured at 500 or 150 cells/well.

Binder	1* OD [OD450]
B1	3.37
B2	2
B3	0.425
B4	3.23

Target: T1, recombinant human SLPI (Secretory …)
Assay: limiting antigen ELISA, biotinylated SLPI coated at 800 ng/ml
Procedure: (§1) The limiting antigen analysis is a method that affinity ranks the antigen-specific antibodies in B cell culture supernatants. […] Each plate was washed 5 times with dH₂O, before 46 μl/well of 1% milk in PBS with 0.05% sodium azide was added, followed by 4 μl/well of B cell supernatant. After 22 hours at RT on a shaker, the plates were again washed 5 times with dH₂O. Goat anti-Human (Fc)-HRP at 1 μg/ml, 50 μl/well was added. After 1 hour at RT, the plates were again washed 5 times with dH₂O and 50 μl/well of TMB substrate was added. The reaction was stopped by the addition of 50 μl of 1M phosphoric acid to each well and the plates were read at wavelength 450 nm. 42C1, 43H7, 35F1 and 9G12 were chosen for further evaluation and cloning.

Binder	OD [OD450]
B1	4.1
B2	2.25
B3	0.37
B4	3.85

Target: T1, recombinant human SLPI (Secretory …)
Assay: limiting antigen ELISA, biotinylated SLPI coated at 200 ng/ml
Procedure: as §1

Binder	OD [OD450]
B1	3.52
B2	1.36
B3	0.24
B4	3.69

Target: T1, recombinant human SLPI (Secretory …)
Assay: ELISA, B cell supernatant on biotinylated SLPI, rescreen

Binder	2* OD [OD450]
B1	2.28
B2	1.97
B3	0.41
B4	2.25
